Experimental data from patent publication US20210238276A1 (INTEGRAL MOLECULAR, published 2021).
Where a chain is given by its changes, count along the chain named.

T1: hsGLUT4 P66A (human, UniProt P14672 1-509)
T1 sequence: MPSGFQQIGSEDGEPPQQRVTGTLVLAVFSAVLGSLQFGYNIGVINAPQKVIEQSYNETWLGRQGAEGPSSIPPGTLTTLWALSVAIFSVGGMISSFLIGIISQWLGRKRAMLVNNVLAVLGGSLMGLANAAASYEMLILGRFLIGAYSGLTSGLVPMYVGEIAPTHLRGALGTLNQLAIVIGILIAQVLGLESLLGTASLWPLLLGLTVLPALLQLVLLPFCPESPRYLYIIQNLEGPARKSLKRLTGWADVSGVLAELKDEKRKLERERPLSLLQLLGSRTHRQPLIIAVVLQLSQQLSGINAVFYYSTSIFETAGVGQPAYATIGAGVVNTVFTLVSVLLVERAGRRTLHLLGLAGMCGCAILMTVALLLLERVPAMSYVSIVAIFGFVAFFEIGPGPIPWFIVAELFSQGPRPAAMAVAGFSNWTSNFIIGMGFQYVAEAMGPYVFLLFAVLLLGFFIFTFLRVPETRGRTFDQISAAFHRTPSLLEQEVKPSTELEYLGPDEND

T2: hsGLUT4 L296A (human, UniProt P14672 1-509)
T2 sequence: T1 sequence with A66P, L296A

T3: hsGLUT4 G348A (human, UniProt P14672 1-509)
T3 sequence: T1 sequence with A66P, G348A

T4: hsGLUT4 F405A (human, UniProt P14672 1-509)
T4 sequence: T1 sequence with A66P, F405A

B1: AB101 (scFv)
scFv: ALTQPSSVSANPGETVKITCSGSSNSYGWYQQKSPGSAPVTVIYYNDKRPSDIPSRFSGSKSDSTHTLTITGVRAEDEAVYFCGSYDSTYVGIFGAGTTLTVLGQSSRSSGGGGSSGGGGSAVTLDESGGGLQTPGGTLSLVCKASGFTFSSNAMGWVRQAPGKGLEWVAGISSDGRYTKYGSAVKGRATISRDNGQSTVRLQLNNLRAEDTGTYFCAKAFGNNYRRIYAGQIDAWGHGTEVIVSS
notes: Chicken-derived clone used as a control; the four lead clones were tested as scFv-human IgG1 Fc; also called MAb AB101
B2: AB111 (Fc fusion)
scFv: ALTQPSSVSANPGETVKITCSGSGSWYGWFQQKSPGSAPVTVIYSNDKRPSDIPSRFSGSKSGSTSTLTITGVQVEDEAVYYCGNWDIFGAGTTLTVLGQSSRSSGGGGSSGGGGSAVTLDESGGGLQTPGGALSLVCKASGFTFSSHGMGWVRQAPGKGLEWVASISTGRYTFYAPAVKGRATISRDNGQSTVRLQLNNLRAEDTATYYCTKCAGLNGCGGGEIDAWGHGTEVIVSS
notes: Bivalent scFv-Fc; also called MAb AB111; not shown: Fc fragment of human IgG1, cloned in frame with the scFv
B3: AB108 (Fc fusion)
scFv: ALTQPSSVSANLGGTVKITCSGSSGSYGWYQQKAPGSAPVTLIYRNDKRPSDIPSRFSGSESGSTGTLTITGVQAEDEAVYFCGGYDSSAGYAAFGAGTTLTVLGQSSRSSGGGGSSGGGGSAVTLDESGGGLQTPGGALSLVCKASGFTFSSHGMGWVRQAPGKGLEWVGSISTGRYTFYAPAVKGRATISRDNGQSTLRLQLNNLRAEDTGTYYCTKCAGLNGCGGGEIDAWGHGTEVIVSS
notes: Bivalent scFv-Fc; also called MAb AB108; not shown: Fc fragment of human IgG1, cloned in frame with the scFv

Columns and labels:
Test in all cases: flow cytometry, alanine-scan library in HEK-293T
hsGLUT4 P66A = target: T1, hsGLUT4 P66A
In short: (§1)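 HEK-293T cells expressing individual GLUT4 alanine mutants were stained 48 h post-transfection with anti-GLUT4 scFv MAbs (2 μg/ml), then biotinylated secondary and streptavidin-PerCP, and read by high-throughput flow cytometry. Where used, cytochalasin B (10 uM final) was given for 30 min before and during primary antibody staining.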

hsGLUT4 L296A = target: T2, hsGLUT4 L296A
In short: as §1

hsGLUT4 G348A = target: T3, hsGLUT4 G348A
In short: as §1

hsGLUT4 F405A = target: T4, hsGLUT4 F405A
In short: as §1

Row | Molecule | % of binding to wild type GLUT4 (hsGLUT4 P66A) [%] | % of binding to wild type GLUT4 (hsGLUT4 L296A) [%] | % of binding to wild type GLUT4 (hsGLUT4 G348A) [%] | % of binding to wild type GLUT4 (hsGLUT4 F405A) [%]
1 | 1F8 (antibody) | 78 | 105 | 109 | 107
2 | B1 | 91 | 90 | 101 | 106
3 | B2 | 90 | 144 | 161 | 118
4 | B3 | 11 | 72 | 94 | 103
